Test results as given in patent US20240352438A1, “MEANS AND METHODS FOR DETOXIFYING OCHRATOXIN A” (DSM Austria GmbH, priority 2021, published 2024).

What was measured:
[1] = Feeding trial in pigs: OTA concentration in plasma and urine; type: in vivo; details: for % OTA reduction, plasma samples / % OTA reduction, urine samples: day 14
Procedure: To further study an application of the enzymes referred to herein as additives e.g. for feed or food, feeding trials were conducted in pigs. Exemplarily, either of the enzymes having either the amino acid sequence of SEQ ID NO: 1 or 2 were produced by cultivation of E. coli transformants in bioreactors by applying methods known to a person having skill in the art. The cell broth was homogenized and centrifuged. The supernatant was concentrated, dried by lyophilization and formulated as a powder by grinding. The enzymatic activity of the thus obtained lyophilized powder was determined, and the powder was mixed with feed for the feeding trial as described in the following.
Thirteen piglet groups were studied based on the following experimental diet setups: 1) Base feed; 2) base feed+50 ppb OTA; 3) base feed+50 ppb OTA+2.62 U of the enzyme of SEQ ID NO: 1 per kg of feed; 4) base feed+50 ppb OTA+0.29 U of the enzyme of SEQ ID NO: 2 per kg of feed; 5) base feed+500 ppb OTA; 6) base feed+500 ppb OTA+2.62 U of the enzyme of SEQ ID NO: 1 per kg of feed; 7) 500 ppb OTA+0.29 U of the enzyme of SEQ ID NO: 2 per kg of feed.
Each trial group consisted of four piglets weighing approximately 7-8 kg, who were coming out from weaning and adapted to solid diet before being fed the experimental diet as described above. The duration of the feeding trial (i.e. actual days of feeding the experimental diet) was fourteen days. Collectively each trial group consumed around 15 kg of feed. No piglets fell sick to any unexpected disease throughout the feeding trial. Urine and blood samples were collected on day 0, just before starting the experimental diet, and on day 14.
Extraction of OTA was performed from plasma and urine samples for subsequent analysis by HPLC-MS. 200 μL of sample was thoroughly mixed with 800 μL of extraction solution (containing 99% of ethyl acetate and 1% of phosphoric acid, 85%) followed by centrifugation at 19000×g for 5 min for phase separation. 50 μL of upper phase was diluted with 50 μL of acetonitrile, followed by HPLC-MS analysis. The HPLC-MS method as described by Dellafiora et al. (2020, Toxins 12, 258) was used to determine the changes in OTA concentration in the samples taken during the trial upon consumption of the experimental diets. The results are shown in Table 18 using the diet setup numbering as indicated above.

[2] = Pelleting trial: degradation of spiked OTA to OTalpha in mash feed and resuspended pellets; details: for OTalpha %: formed OTalpha; for OTA %: remaining OTA
Procedure: To verify the suitability of the enzymes referred to herein as additives e.g. for feed or food, pelleting trials were conducted. As an example, 1.15 U or 0.06 U of either of the enzymes having either the amino acid sequence of SEQ ID NO: 1 or 2 was homogeneously mixed with one kg of mash feed and subjected to standard feed pelleting process where the temperature of the conditioner was set to either 75, 80, 85, 90 or 95° C. in five separate batches of feed pelleting. The effect of pelleting process on the stability of enzyme was estimated by calculation of percentage degradation of spiked OTA to OTalpha in resuspended pellets. Untreated mash was analyzed applying the following protocol: 50 μL of 10 ppm OTA were spiked to g of dry sample, directly before starting the assay by adding 4.95 mL RO-water (37° C.). The suspension was incubated in 50 mL tubes in an overhead shaker at 37° C. for 60 min. The reaction was stopped by adding 1 mL 6 M phosphoric acid followed by another incubation in a rotary shaker at room temperature for 10 min. Subsequently 30 μL of ^13C-labeled OTA/^13C-labeled OTalpha (each 1 ppm) internal standard were added to each sample and mixed. 30 mL ethyl acetate were added followed by shaking for 60 min at 80 rpm on an overhead shaker. After centrifugation (10 min, 3214 rcf), 8 mL of the organic upper phase were transferred to a new 50 mL tube. 4 mL of 0.1 M NaHCO3 (pH 8.2) were added. After shaking for 1 min at 80 rpm on an overhead shaker, sample was centrifuged again (10 min, 3214 rcf) and 3 mL of the aqueous lower phase transferred to a new 15 mL tube. 70 μL 85% phosphoric acid and 1.5 mL ethyl acetate were added and shaken for 1 min at 80 rpm at an overhead shaker. After centrifugation (10 min, 3214 rcf) 50 μL organic upper phase were added to 50 μL acetonitrile in a silanized HPLC vial and thoroughly mixed. OTA and OTalpha content was determined by HPLC MS/MS method as described by Dellafiora et al. (2020, Toxins 12, 258) to determine the percentage of OTA degradation to form OTalpha.

[3] = 500 ppb OTA+enzyme (2.62 U SEQ ID NO: 1 or 0.29 U SEQ ID NO: 2 per kg of feed)
[4] = base feed+50 ppb OTA+enzyme (2.62 U SEQ ID NO: 1 or 0.29 U SEQ ID NO: 2 per kg of feed)
[5] = mash before pelleting, 1.15 U or 0.06 U enzyme per kg mash feed, 37° C., 60 min

B1: SEQ ID NO: 2: exemplary OTA-hydrolyzing polypeptide 2 belonging to the amidohydrolase protein family (protein)
chain: MYSLAIRNGIVFDGEKFIGKTNIYVDGDKIVKITNERLDAKEEVNAEGYFVMPGLIDAHLHLTGIRGGSLLMGYLLDDPRTRLLRAANWARELLMAGFTTVRDCGEPNSIILRNAINEGIIPGPRIIAAGSPITQTFGHAELSHSLPLEWSIQLGFGEICDGVDECIKAARKVLRSGADFIKIMATGGVLSERDRPEWPQLTPEEMSAIVREAEKVGTYVAAHAHGDKGARIAVEAGVRTIEHGSLITEETVKLMAEKGVSLTPTLSIQELIYKYGKQMGIDPWGLEKIGQVREGVINSIKLARKYGVMILAGTDLGFKTGLDIDMGKNWVEVKLLVELGGLSSEEALRAATGNASKMLRLNTGIIREGYLADIVLINGNPLENINDIARVSTVIKGGKVTVENGKLI
modifications: polypeptide 2
notes: exemplary OTA-hydrolyzing polypeptide 2 belonging to the amidohydrolase protein family
With B1 the “OTA concentration in plasma samples, Day 14” value [1, 3] was 107 ± 31 ppb, the “OTA concentration in urine samples, Day 14” value [1, 3] was 4 ppb and the “% OTA reduction, plasma samples” value [1, 3] was 74%. The “% OTA reduction, urine samples” value [1, 3] was 80%, the “OTA concentration in plasma samples, Day 14” value [1, 4] was 11 ± 3 ppb and the “OTA concentration in urine samples, Day 14” value [1, 4] was 0 ppb. The “% OTA reduction, plasma samples” value [1, 4] was 73%, the “% OTA reduction, urine samples” value [1, 4] was 100% and the OTalpha % ([2]; after pelleting at 75° C.) was 84%. The OTalpha % ([2]; after pelleting at 80° C.) was 88%, the OTalpha % ([2]; after pelleting at 85° C.) was 84% and the OTalpha % ([2]; after pelleting at 90° C.) was 88%. The OTalpha % ([2]; after pelleting at 95° C.) was 87%, the OTalpha % [2, 5] was 80% and the OTA % ([2]; after pelleting at 75° C.) was 16%. The OTA % ([2]; after pelleting at 80° C.) was 12%, the OTA % ([2]; after pelleting at 85° C.) was 16% and the OTA % ([2]; after pelleting at 90° C.) was 12%. For the same molecule, the OTA % ([2]; after pelleting at 95° C.) was 13% and the OTA % [2, 5] was 20%.

B2: SEQ ID NO: 1: mature species of exemplary OTA-hydrolyzing polypeptide 1, amidohydrolase family; lacks N-terminal amino acids 1-24 of SEQ ID NO: 318 (protein)
chain: APAAPHTVVLRAARMFDGASGKLVDHPQLTIVGNKIVRIAQGDKAEVPAGAEVVDLGDATLLPGFIDAHVHLSGQSSDNWYGDFFDNMMRFPAEQALYGAYYARITLEAGFTSVRDVGSTDWVALGLRNAIDAGKVPGPRMLVSNYAVGSTGGHADQDPIPPHKLPLAGPLQGVCNGPEECRAAVRYQIKYGANVIKFMPSGGVLSLSDPVDAPELSQDEMNAVIGESHAWGRKVAAHAHGDKAAKMAVAAGVDSIEHGSFIEDDTLRAMKAKNVYLVPTISAIAHVEEKIGTFPPVIAEKGRAAAAHLRQTFRHAVQIGVPIALGTDAGVGAHGSNAREFRYMVENGLTPAQALLAGTANAARLLGTFDRVGTLEAGKLADVVAVPGNPIADITVTERPLFVMKDGVVVRRDAVR
modifications: polypeptide 1
In the case of B2, the “OTA concentration in plasma samples, Day 14” value [1, 3] is reported as 168 ± 41 ppb, the “OTA concentration in urine samples, Day 14” value [1, 3] is reported as 7 ± 1 ppb and the “% OTA reduction, plasma samples” value [1, 3] is reported as 59%. The “% OTA reduction, urine samples” value [1, 3] was 65%, the “OTA concentration in plasma samples, Day 14” value [1, 4] was 19 ± 2 ppb and the “OTA concentration in urine samples, Day 14” value [1, 4] was 0 ppb. For the same molecule, the “% OTA reduction, plasma samples” value [1, 4] was 54%, the “% OTA reduction, urine samples” value [1, 4] was 100% and the OTalpha % ([2]; after pelleting at 75° C.) was 99%. It also gave an OTalpha % ([2]; after pelleting at 80° C.) of 99%, an OTalpha % ([2]; after pelleting at 85° C.) of 99% and an OTalpha % ([2]; after pelleting at 90° C.) of 99%. It also gave an OTalpha % ([2]; after pelleting at 95° C.) of 99%, an OTalpha % [2, 5] of 99% and an OTA % ([2]; after pelleting at 75° C.) of 1%. For the same molecule, the OTA % ([2]; after pelleting at 80° C.) was 1%, the OTA % ([2]; after pelleting at 85° C.) was 1% and the OTA % ([2]; after pelleting at 90° C.) was 1%. For the same molecule, the OTA % ([2]; after pelleting at 95° C.) was 1% and the OTA % [2, 5] was 1%.
